Target: Rabbit skeletal muscle actin (rabbit, UniProt P68135 1-377)
Test: MST; microscale thermophoresis of Ysc84-Nt with monomeric (G-) actin; conditions not shown (S1 File)
Conditions: both partners purified

Kd: 0.85 µM
B1: 6xHis tagged Ysc84-Nt (wild type, N-terminal YAB domain) (domain or fragment)
chain: MGINNPIPRSLKSETKKAAKVLRSFVKPNQVFGADQVIPPYVLKRAKGLAIITVLKAGFLFSGRAGSGVIVARLKDGTWSAPSAIAMAGAGAGGMVGVELTDFVFILNSEEAVRSFSEFGTITLGGNVSVSAGPLGRSAEAAASASTGGVSAVFAYSKSKGLFAGVSVEGSAILERREANRKFYGDNCTSKMILSGRVKVPPAADPLLRILESRAFNF
notes: The His tag was detected on this protein on PIP strips; no cleavage is described; also called Ysc84-Nt WT; wild-type Ysc84-Nt; source: E. coli BL21 DE3, purified (HisTrap HP nickel column)
